From paper PMC10663500, “High-throughput analysis system of interaction kinetics for data-driven antibody design” (Scientific Reports, 2023)

Experiments:
[1] = target: T1, human programmed cell death protein 1 (hPD-1) C93S (aa 24-167) (Homo sapiens, UniProt Q15116, C93S); assay: SPR; Carterra LSA; Fab from the ammonium sulfate precipitate of the culture supernatant immobilised on a NiHC200M chip; hPD-1 (1-1024 nM) or mPD-1-Fc (4-1024 nM) as analyte, fourfold dilution series, no regeneration; HBS-EP pH 7.4, 25 °C; medians over the spots of a construct, KD = koff/kon; conditions: one partner purified
T1 construct: made as a fusion with a TEV site and human Fc; the Fc was cut off with TEV protease; source: Expi293F, purified (Protein A, TEV cleavage of Fc, SEC; monomer fractions); not shown: Fc (human), C-terminal, cleaved
T1 sequence (Q15116 24-167 C93S): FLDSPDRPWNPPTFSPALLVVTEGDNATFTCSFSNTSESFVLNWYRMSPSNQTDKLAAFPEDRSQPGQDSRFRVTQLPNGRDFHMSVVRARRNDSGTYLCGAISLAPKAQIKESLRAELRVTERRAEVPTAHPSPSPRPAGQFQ
How it was run: (§1)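 Fabs from Brevibacillus culture supernatants were ammonium sulfate-precipitated, redissolved in HBS-EP and captured in duplicate on a NiHC200M chip (Carterra LSA, 25 °C). Human PD-1 (1–1024 nM) or mouse PD-1-Fc (4–1024 nM) flowed as fourfold series without regeneration, with 10 min association and 5 min dissociation; unconfirmed binders were set to kon 10^3 […], koff 10^−2 s^−1. Rates came from kdka model fits (slow- or fast-dissociation settings, best fit); KD is koff/kon from per-construct medians.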

[2] = target: T2, mouse programmed cell death protein 1 Fc fusion protein (mPD-1-Fc), mPD-1 C60S (aa 25-167) (Mus musculus, UniProt Q02242, stabilised); assay: as above; conditions: one partner purified
T2 construct: not cleaved; source: Expi293F, purified (Protein A, SEC; dimeric fraction); not shown: Fc (human), C-terminal, kept
How it was run: as §1

| Binder | Kd [1] | koff [1] | kon [1] | Kd [2] | koff [2] | kon [2] |
| --- | --- | --- | --- | --- | --- | --- |
| toripalimab Fab H.T55Y (Fab, V domains shown, heavy chain of Sm3 with this change; numbers count from the chain's first residue; as the light chain of Sm3; source: Brevibacillus, culture supernatant (ammonium sulfate precipitate); not shown: 6xHis, C-terminal, kept; 6xHN, C-terminal, kept) VH: QGQLVQSGAEVKKPGASVKVSCKASGYTFTDYEMHWVRQAPIHGLEWIGVIESEYGGTAYNQKFKGRVTITADKSTSTAYMELSSLRSEDTAVYYCAREGITTVATTYYWYFDVWGQGTTVTVSS VL: DVVMTQSPLSLPVTLGQPASISCRSSQSIVHSNGNTYLEWYLQKPGQSPQLLIYKVSNRFSGVPDRFSGSGSGTDFTLKISRVEAEDVGVYYCFQGSHVPLTFGQGTKLEIK | < 0.354 nM | < 1e-05 s⁻¹ | 28300 M⁻¹ s⁻¹ | 35.8 nM | 0.00179 s⁻¹ | 49900 M⁻¹ s⁻¹ |
| toripalimab Fab H.A59Y (Fab, V domains shown, heavy chain of Sm3 with this change; numbers count from the chain's first residue; as the light chain of Sm3; source: Brevibacillus, culture supernatant (ammonium sulfate precipitate); not shown: 6xHis, C-terminal, kept; 6xHN, C-terminal, kept) VH: QGQLVQSGAEVKKPGASVKVSCKASGYTFTDYEMHWVRQAPIHGLEWIGVIESETGGTYYNQKFKGRVTITADKSTSTAYMELSSLRSEDTAVYYCAREGITTVATTYYWYFDVWGQGTTVTVSS VL: DVVMTQSPLSLPVTLGQPASISCRSSQSIVHSNGNTYLEWYLQKPGQSPQLLIYKVSNRFSGVPDRFSGSGSGTDFTLKISRVEAEDVGVYYCFQGSHVPLTFGQGTKLEIK | 2.18 nM | 4.81e-05 s⁻¹ | 22100 M⁻¹ s⁻¹ | 345 nM | 0.0135 s⁻¹ | 39200 M⁻¹ s⁻¹ |
| toripalimab Fab H.Y60A (Fab, V domains shown, heavy chain of Sm3 with this change; numbers count from the chain's first residue; as the light chain of Sm3; source: Brevibacillus, culture supernatant (ammonium sulfate precipitate); not shown: 6xHis, C-terminal, kept; 6xHN, C-terminal, kept) VH: QGQLVQSGAEVKKPGASVKVSCKASGYTFTDYEMHWVRQAPIHGLEWIGVIESETGGTAANQKFKGRVTITADKSTSTAYMELSSLRSEDTAVYYCAREGITTVATTYYWYFDVWGQGTTVTVSS VL: DVVMTQSPLSLPVTLGQPASISCRSSQSIVHSNGNTYLEWYLQKPGQSPQLLIYKVSNRFSGVPDRFSGSGSGTDFTLKISRVEAEDVGVYYCFQGSHVPLTFGQGTKLEIK | < 0.309 nM | < 1e-05 s⁻¹ | 32300 M⁻¹ s⁻¹ | 88.2 nM | 0.00422 s⁻¹ | 47900 M⁻¹ s⁻¹ |
| toripalimab Fab H.D31Y (Fab, V domains shown, heavy chain of Sm3 with this change; numbers count from the chain's first residue; as the light chain of Sm3; source: Brevibacillus, culture supernatant (ammonium sulfate precipitate); not shown: 6xHis, C-terminal, kept; 6xHN, C-terminal, kept) VH: QGQLVQSGAEVKKPGASVKVSCKASGYTFTYYEMHWVRQAPIHGLEWIGVIESETGGTAYNQKFKGRVTITADKSTSTAYMELSSLRSEDTAVYYCAREGITTVATTYYWYFDVWGQGTTVTVSS VL: DVVMTQSPLSLPVTLGQPASISCRSSQSIVHSNGNTYLEWYLQKPGQSPQLLIYKVSNRFSGVPDRFSGSGSGTDFTLKISRVEAEDVGVYYCFQGSHVPLTFGQGTKLEIK | < 0.349 nM | < 1e-05 s⁻¹ | 28600 M⁻¹ s⁻¹ | 291 nM | 0.0133 s⁻¹ | 45600 M⁻¹ s⁻¹ |
| toripalimab Fab H.G57A (Fab, V domains shown, heavy chain of Sm3 with this change; numbers count from the chain's first residue; as the light chain of Sm3; source: Brevibacillus, culture supernatant (ammonium sulfate precipitate); not shown: 6xHis, C-terminal, kept; 6xHN, C-terminal, kept) VH: QGQLVQSGAEVKKPGASVKVSCKASGYTFTDYEMHWVRQAPIHGLEWIGVIESETGATAYNQKFKGRVTITADKSTSTAYMELSSLRSEDTAVYYCAREGITTVATTYYWYFDVWGQGTTVTVSS VL: DVVMTQSPLSLPVTLGQPASISCRSSQSIVHSNGNTYLEWYLQKPGQSPQLLIYKVSNRFSGVPDRFSGSGSGTDFTLKISRVEAEDVGVYYCFQGSHVPLTFGQGTKLEIK | 0.598 nM | 1.47e-05 s⁻¹ | 24500 M⁻¹ s⁻¹ | 125 nM | 0.00625 s⁻¹ | 50100 M⁻¹ s⁻¹ |
| toripalimab Fab H.G56A (Fab, V domains shown, heavy chain of Sm3 with this change; numbers count from the chain's first residue; as the light chain of Sm3; source: Brevibacillus, culture supernatant (ammonium sulfate precipitate); not shown: 6xHis, C-terminal, kept; 6xHN, C-terminal, kept) VH: QGQLVQSGAEVKKPGASVKVSCKASGYTFTDYEMHWVRQAPIHGLEWIGVIESETAGTAYNQKFKGRVTITADKSTSTAYMELSSLRSEDTAVYYCAREGITTVATTYYWYFDVWGQGTTVTVSS VL: DVVMTQSPLSLPVTLGQPASISCRSSQSIVHSNGNTYLEWYLQKPGQSPQLLIYKVSNRFSGVPDRFSGSGSGTDFTLKISRVEAEDVGVYYCFQGSHVPLTFGQGTKLEIK | < 1.46 nM | < 1e-05 s⁻¹ | 6870 M⁻¹ s⁻¹ | 154 nM | 0.00466 s⁻¹ | 30200 M⁻¹ s⁻¹ |
| toripalimab Fab H.T58A (Fab, V domains shown, heavy chain of Sm3 with this change; numbers count from the chain's first residue; as the light chain of Sm3; source: Brevibacillus, culture supernatant (ammonium sulfate precipitate); not shown: 6xHis, C-terminal, kept; 6xHN, C-terminal, kept) VH: QGQLVQSGAEVKKPGASVKVSCKASGYTFTDYEMHWVRQAPIHGLEWIGVIESETGGAAYNQKFKGRVTITADKSTSTAYMELSSLRSEDTAVYYCAREGITTVATTYYWYFDVWGQGTTVTVSS VL: DVVMTQSPLSLPVTLGQPASISCRSSQSIVHSNGNTYLEWYLQKPGQSPQLLIYKVSNRFSGVPDRFSGSGSGTDFTLKISRVEAEDVGVYYCFQGSHVPLTFGQGTKLEIK | < 0.662 nM | < 1e-05 s⁻¹ | 15100 M⁻¹ s⁻¹ | 169 nM | 0.0066 s⁻¹ | 39000 M⁻¹ s⁻¹ |
